Our source for the Kd, koff and kon values is publication PMC5701055 (Nature Communications, 2017).

Assay [1] deals with T1, soluble ectodomain of human aminopeptidase N (hAPN), residues 66–967, WT (human, UniProt P15144 66-967). The assay can be described thus: SPR. The following applies: both partners purified.
Assay [2] addresses T1, soluble ectodomain of human …. As to the kind of experiment: SPR. The following applies: both partners purified. The source holds these as a separate data set.

T1 sequence (P15144 66-967): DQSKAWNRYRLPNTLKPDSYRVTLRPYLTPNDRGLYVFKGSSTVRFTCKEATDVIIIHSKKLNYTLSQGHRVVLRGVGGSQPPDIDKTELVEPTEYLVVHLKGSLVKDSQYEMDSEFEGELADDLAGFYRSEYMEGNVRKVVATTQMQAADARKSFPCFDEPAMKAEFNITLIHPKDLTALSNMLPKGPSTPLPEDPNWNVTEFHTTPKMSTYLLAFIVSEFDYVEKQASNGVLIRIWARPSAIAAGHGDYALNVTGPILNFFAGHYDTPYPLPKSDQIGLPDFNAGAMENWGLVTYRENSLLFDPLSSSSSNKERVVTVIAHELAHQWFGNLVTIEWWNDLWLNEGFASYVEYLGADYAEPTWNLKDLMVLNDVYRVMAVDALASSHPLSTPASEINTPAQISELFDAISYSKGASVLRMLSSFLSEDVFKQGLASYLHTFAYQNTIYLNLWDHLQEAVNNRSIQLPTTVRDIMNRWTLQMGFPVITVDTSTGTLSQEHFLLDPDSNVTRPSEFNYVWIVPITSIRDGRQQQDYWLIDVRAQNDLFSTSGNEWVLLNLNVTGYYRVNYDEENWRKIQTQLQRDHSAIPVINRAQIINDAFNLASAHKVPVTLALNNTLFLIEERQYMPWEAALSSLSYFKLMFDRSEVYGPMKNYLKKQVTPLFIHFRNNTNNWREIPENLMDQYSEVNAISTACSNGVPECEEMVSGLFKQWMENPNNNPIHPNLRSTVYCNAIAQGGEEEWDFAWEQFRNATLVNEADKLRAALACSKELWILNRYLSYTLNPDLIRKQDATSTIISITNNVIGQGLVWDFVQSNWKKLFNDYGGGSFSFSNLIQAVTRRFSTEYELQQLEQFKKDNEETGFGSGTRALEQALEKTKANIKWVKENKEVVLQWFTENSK

B1: HCoV-229E S-protein receptor-binding domain (RBD), residues 293–435, WT (Class I) (domain or fragment)
chain: LPVYHKHTFIVLYVDFKPQSGGGKCFNCYPAGVNITLANFNETKGPLCVDTSHFTTKYVAVYANVGRWSASINTGNCPFSFGKVNNFVKFGSVCFSLKDIPGGCAMPIVANWAYSKYYTIGSLYVSWSDGDGITGVPQPVEGV
Consider B1, for which, in assay [1], binding was put at a Kd of 430 nM; the koff (commonly the first-order rate constant of dissociation) is 0.16 s⁻¹; the kon (in general, the second-order rate constant of association) came out at 360000 M⁻¹ s⁻¹. For the same molecule, in assay [2], binding was put at a Kd of 434 nM, the koff was 0.16 s⁻¹ and the kon was 360000 M⁻¹ s⁻¹.

B2: HCoV-229E S-protein S1 region, residues 17–560, WT (domain or fragment)
chain: QTTNGLNTSYSVCNGCVGYSENVFAVESGGYIPSDFAFNNWFLLTNTSSVVDGVVRSFQPLLLNCLWSVSGLRFTTGFVYFNGTGRGDCKGFSSDVLSDVIRYNLNFEENLRRGTILFKTSYGVVVFYCTNNTLVSGDAHIPFGTVLGNFYCFVNTTIGNETTSAFVGALPKTVREFVISRTGHFYINGYRYFTLGNVEAVNFNVTTAETTDFCTVALASYADVLVNVSQTSIANIIYCNSVINRLRCDQLSFDVPDGFYSTSPIQSVELPVSIVSLPVYHKHTFIVLYVDFKPQSGGGKCFNCYPAGVNITLANFNETKGPLCVDTSHFTTKYVAVYANVGRWSASINTGNCPFSFGKVNNFVKFGSVCFSLKDIPGGCAMPIVANWAYSKYYTIGSLYVSWSDGDGITGVPQPVEGVSSFMNVTLDKCTKYNIYDVSGVGVIRVSNDTFLNGITYTSTSGNLLGFKDVTKGTIYSITPCNPPDQLVVYQQAVVGAMLSENFTSYGFSNVVELPKFFYASNGTYNCTDAVLTYSSFGVCADGS
For B2, in assay [1], the Kd – broadly, a measure of binding affinity in units of concentration – turned out to be 1630 nM; the koff was found to be 0.06 s⁻¹; the kon stood at 39000 M⁻¹ s⁻¹.
